Test results published in the supplement of paper PMC9233669.
This sample holds only a part of the variants without activity.

Tests used:
biotinyl-Phe-oxazolone = experiment: self-aminoacylation, catalytic enhancement (BFO) (fold over background); higher = more active; k-Seq, kA / k0A0; sequences stand for … in GGGAAUGGAUCCACAUCUACGAAUUC…UUCACUGCAGACUUGACGAAGCUG
Outline: (§1)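 Catalytic enhancement equals the median kA over the uncatalyzed rate, the latter read from the low-activity peak of a bimodal Gaussian fit. Values of kA came from fitting each sequence's fraction reacted to a pseudo-first-order model, with 1000 bootstraps. Reacted RNA was captured with streptavidin and quantified by triplicate qPCR and Illumina sequencing after 90 minutes at room temperature with 2–1250 μM biotinyl-aminoacyl-oxazolone and 0.43 μM mutagenized RNA pools bearing a 21-nt variable region.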

biotinyl-Ile-oxazolone = experiment: self-aminoacylation, catalytic enhancement (BIO) (fold over background); higher = more active; k-Seq, kA / k0A0; sequences stand for … in GGGAAUGGAUCCACAUCUACGAAUUC…UUCACUGCAGACUUGACGAAGCUG
Outline: as §1

biotinyl-Met-oxazolone = experiment: self-aminoacylation, catalytic enhancement (BMO) (fold over background); higher = more active; k-Seq, kA / k0A0; sequences stand for … in GGGAAUGGAUCCACAUCUACGAAUUC…UUCACUGCAGACUUGACGAAGCUG
Outline: as §1

biotinyl-Val-oxazolone = experiment: self-aminoacylation, catalytic enhancement (BVO) (fold over background); higher = more active; k-Seq, kA / k0A0; sequences stand for … in GGGAAUGGAUCCACAUCUACGAAUUC…UUCACUGCAGACUUGACGAAGCUG
Outline: as §1

biotinyl-Leu-oxazolone = experiment: self-aminoacylation, catalytic enhancement (BLO) (fold over background); higher = more active; k-Seq, kA / k0A0; sequences stand for … in GGGAAUGGAUCCACAUCUACGAAUUC…UUCACUGCAGACUUGACGAAGCUG
Outline: as §1

biotinyl-Trp-oxazolone = experiment: self-aminoacylation, catalytic enhancement (BWO) (fold over background); higher = more active; k-Seq, kA / k0A0; sequences stand for … in GGGAAUGGAUCCACAUCUACGAAUUC…UUCACUGCAGACUUGACGAAGCUG
Outline: as §1

Sequence | self-aminoacylation (biotinyl-Phe-oxazolone) | self-aminoacylation (biotinyl-Ile-oxazolone) | self-aminoacylation (biotinyl-Met-oxazolone) | self-aminoacylation (biotinyl-Val-oxazolone) | self-aminoacylation (biotinyl-Leu-oxazolone) | self-aminoacylation (biotinyl-Trp-oxazolone)
GUACUUCAAACAAUCUGUCUG [Fam1A.1 aminoacylation ribozyme variant] | 4.1 | 1.76 | 1.41 | 1.56 | 1.45 | 3.06
CUACUUCAAACAAUGGGUCUA [Fam1A.1 aminoacylation ribozyme variant] | 0.65 | 0.847 | 0.611 | 0.756 | 0.638 | 0.487
CUUCACCUAGGCCAUCGGGUG [Fam2.2 aminoacylation ribozyme variant] | 11.2 | 2.55 | 3.12 | 3.8 | 4.08 | 4.2
AUUCACCUAGGUCAUUGGGCG [Fam2.2 aminoacylation ribozyme variant] | 10.6 | 2.58 | 2.49 | 2.66 | 3.36 | 3.16
AUUCACCUGCGUCAUCGGGUG [Fam2.2 aminoacylation ribozyme variant] | 49.4 | 5.17 | 7.79 | 5.41 | 10.6 | 7.09
AUUACCCUGAUCAUCGAGUGA [Fam2.1 aminoacylation ribozyme variant] | 21.8 | 3.8 | 7.96 | 4.15 | 7.82 | 9.57
AAGUUUGCUAGUAGCCGCAAG [Fam3.1 aminoacylation ribozyme variant] | 1.34 | 1.16 | 0.787 | 0.797 | 1.09 | 0.972
AUUCCGCUGGUCAUCGAGUGA [Fam2.1 aminoacylation ribozyme variant] | 45.4 | 3.34 | 6.08 | 3.7 | 6.79 | 8.05
CCACAAUUCAAGCACUCGGUC [Fam1B.1 aminoacylation ribozyme variant] | 0.706 | 1.4 | 1.17 | 1.18 | 1.24 | 0.787
CUACUUCUAACAAUCGCUCUG [Fam1A.1 aminoacylation ribozyme variant] | 0.385 | 0.612 | 0.553 | 0.559 | 0.602 | 0.498
GUUACCCUGGUCAUCGAGUCA [Fam2.1 aminoacylation ribozyme variant] | 1.64 | 0.936 | 1.26 | 1.46 | 1.28 | 1.1
AUUCCCCUGGUUAUCGAGUGA [Fam2.1 aminoacylation ribozyme variant] | 82.2 | 5.07 | 10.2 | 5.49 | 9.8 | 14.5
CGACACUUCAAGCAAUCGGAC [Fam1B.1 aminoacylation ribozyme variant] | 1.21 | 1.67 | 1.74 | 1.31 | 1.57 | 1.31
AAGUUUGCCAAUAGUCGGAAG [Fam3.1 aminoacylation ribozyme variant] | 1.28 | 1.14 | 0.781 | 0.968 | 0.941 | 0.79
AUUCACCAAGGUCAACGGGUG [Fam2.2 aminoacylation ribozyme variant] | 42.5 | 3.52 | 6.3 | 3.1 | 8.07 | 6.16
AAGUUUGAUAAUAGUCGUAAG [Fam3.1 aminoacylation ribozyme variant] | 1.38 | 0.716 | 0.625 | 0.603 | 0.65 | 0.783
CUACUUCAAACAAUUGGACUG [Fam1A.1 aminoacylation ribozyme variant] | 0.671 | 0.709 | 0.633 | 0.641 | 0.664 | 0.443
AUUCACCUAUGUCAGCGGGUG [Fam2.2 aminoacylation ribozyme variant] | 28.7 | 2.87 | 3.6 | 2.33 | 4.78 | 3.73
AAGGUUGCUAAUAGUCGCAAA [Fam3.1 aminoacylation ribozyme variant] | 1.51 | 1.86 | 1.28 | 1.42 | 1.63 | 1.4
GAGUUUACUAAUAGUCGCAAG [Fam3.1 aminoacylation ribozyme variant] | 3.13 | 1.84 | 1.19 | 1.29 | 1.59 | 2.33
CCACAGUUCAAGCAAUGGGUC [Fam1B.1 aminoacylation ribozyme variant] | 0.542 | 1.04 | 1.03 | 1.05 | 0.763 | 0.726
CUACUUUAAUCAAUCGGUCUG [Fam1A.1 aminoacylation ribozyme variant] | 1.43 | 0.955 | 0.892 | 0.915 | 0.78 | 0.755
